# According to patent US20240400698A1, “ANTI-CHEMOKIN LIKE RECEPTOR 1 ANTIBODIES AND THEIR THERAPEUTIC APPLICATIONS” (OSE IMMUNOTHERAPEUTICS, priority 2018, published 2024):
# T1: CMKLR1 receptor (Homo sapiens, UniProt Q99788)
# T1 construct: host or cells: CHO-K1
# T1 sequence (Q99788 1-373): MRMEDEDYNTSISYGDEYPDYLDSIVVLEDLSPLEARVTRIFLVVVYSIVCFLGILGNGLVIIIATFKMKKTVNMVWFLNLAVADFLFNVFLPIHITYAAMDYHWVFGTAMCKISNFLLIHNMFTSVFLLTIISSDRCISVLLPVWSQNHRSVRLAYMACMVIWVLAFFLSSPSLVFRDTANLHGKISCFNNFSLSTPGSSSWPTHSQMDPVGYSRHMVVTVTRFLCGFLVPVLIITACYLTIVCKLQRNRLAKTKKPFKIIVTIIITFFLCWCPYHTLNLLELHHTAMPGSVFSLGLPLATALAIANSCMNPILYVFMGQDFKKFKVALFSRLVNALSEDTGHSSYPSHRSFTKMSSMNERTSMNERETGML
# B1: 2G1: chimeric anti-CMKLR1 antibody, murine variable regions (SEQ ID No: 10 and 17), human IgG1 constant regions; VH-CDR3 variant LI (antibody, V domains shown)
# VH: METDTLLLWVLLLWVPGSTGDEVQLVASGGGLVQPGGSLKLSCAASGFTFSSYGMSWVRQTPDRRLELVATINRYGGSTYYPDSVKGRFTISRDNAKNTLYLQMSSLKSEDTAMYYCPRLIYYGNEGDSWGQGTTLTVSS
# VL: METDTLLLWVLLLWVPGSTGDQIVLTQSPAIMSASPGEKVTMTCSASSSVSFMHWYQQKSGTSPKRWIYDTTKLTSGVPARFSGSGSGTFYSLTISSMEAEDAATYYCQQWNSKPPLTFGPGTKLELKR
# modifications: human IgG1 constant regions
# notes: VH-CDR3 variant LI
# Legend:
# [1] = tested on: human macrophages M1 or M2; assay: Human monocyte differentiation and polarization, CD200R by FACS and cytokine secretion by ELISA, FIG. 16; format: cell-based; settings: human cells, 2 μg/ml
# Description: FIG. 16. Study of the inflammatory cytokine secretion by human macrophages during CMKLR1 activation. After differentiation of human monocytes, cells were incubated in presence of different isotype controls (mIgG4; hIgG4 or hIgG1 at […]); C7 commercial anti-CMKLR1 antibody (2 μg/ml); 2G4 or 2G1 antibodies (2 μg/ml), or other commercial anti-CMKLR1 antibodies (H6 (2 μg/ml), BZ332 (2 μg/ml) or 84939 (2 μg/ml), C15 peptides (10 nM), or RvE1 (10 ng/ml). A. Expression of the CD200R marker measured by FACS. B. IL10 cytokine secretion by M2 cells. C. CCL17 cytokine secretion by M2 cells. D. represents IL12 cytokine secretion by M1 cells. Secretion of IL10, CCL17 and IL12p40 were assessed by ELISA.
# Monocytes were collected from PBMC of buffy coat of healthy volunteers and isolated by magnetic separation or by elutriation. Then, monocytes were cultured with different cocktails of cytokines to generate differentiated unpolarized macrophages or polarized macrophages. This protocol allowed to generate polarized differentiated macrophages in order to have pro-(M1) or anti-(M2) inflammatory macrophages in different wells. Monocytes were plated at 0.5·10^6 cells/mL in complete RPMI (RPMI with 10% FBS, 1% glutamine, 1% antibiotics) and 500 μL of the cell suspension was plated per well in a 24-well plate. 100 ng/ml of M-CSF was added with medium for differentiation of the cells. Cells were incubated 5 days and medium was replaced with fresh medium complemented with 100 ng/ml of M-CSF at day 3. For the polarization phases, solution of LPS-IFNg at 100 ng/ml of LPS and 20 ng/ml of IFNg complemented with isotype controls (mIgG1 or hIgG4) (2 μg/ml) or anti-CMKLR1 antibodies (2 μg/ml) (2G1 or 2G4, H6, BZ332 or 84939) or with C15 peptide (10 nM) or RvE1 (10 ng/ml) during 3 days to generate M1 macrophages. M1-IFNg macrophages could also be generated by adding only IFNg (20 ng/ml) in culture medium. […]
# Cytokines secretion was detected by ELISA according to the BD manufacturer instructions. […] TMB supplied by BD Bioscience was used as substrate and colorimetric reaction was read with TECAN.
# CMKLR1 receptor = molecular target: T1, CMKLR1 receptor; assay: Competition assay of Chemerin-dependent β-arrestin recruitment by CMKLR1 receptor, CHO-K1 CMKLR1 cells; format: cell-based; settings: FIG. 20B; antibody 1 μM to 1 nM, Chemerin 2 or 6 nM
# Description: The day before the assay, CHO-K1 CMKLR1 cells (Discover'X ref 93-0313E2) were plated in pre-warmed cell reagent then plated in a 96-well plate at 100 μl/well of cells as (Discover'X ref 15-103) and incubated […] at 37° C., in a 5% CO2 humidified incubator. The anti-CMLKR1 antibody was diluted (22× in 7-point series of 3-fold dilutions from 1 μM to 1 nM) and cells were incubated 30 min at 37° C. with the antibody. […] The luminescence was measured after Working Detection Solution addition to the cells with a plate reader with 0.5 s integration.
# Hepa 1.6 cells = assay: Orthotopic hepatocarcinoma (HCC) model, overall survival; settings: FIG. 22; Hepa 1.6 HCC model; anti-CMKLR1 0.8 mg/kg, anti-PD1 8 mg/kg; followed sixty days
# Description: Effect of an anti-CMKLR1 antibody on an Hepatocarcinoma mice model (HCC model). […] Isotype control antibody was used at 0.8 mg/kg three times a week for 2 weeks. Mice response were considered partial (PR) when mice survive few days to 1 month after stop of treatment or complete (CR) when mice survive over 1 month or cured when they survive three times longer than the time necessary to all control mice dye.
# Method: Mice were anesthetized with a cocktail of xylazine/ketamine. After a laparotomy, tumoral Hepa 1.6 cells were injected in PBS through the portal vein (2.5·10^6 cells/100 μL) in PBS. The treatment was started 4 days after tumor injection. The anti-CMKLR1 antibody (2G1clone) and the hIgG1 istotype control were injected at 0.8 mg/kg three times per week during 2 weeks. The anti-PD1 monoclonal antibody was injected twice a week during 2 weeks intraperitoneally in PBS (8 mg/kg). Combination anti-CMKLR1 and anti-PD1 antibodies was tested as well (0.8 mg/kg and 8 mg/kg respectively).
# [2] = tested on: C57BI/6 male mice, colitis induced by DSS; assay: Acute inflammatory colitis model induced by DSS; format: in vivo
# Description: FIG. 2. […] Mice were injected after 6 days of DSS induction with isotype control hIgG1 (10 μg per mouse) (x), RvE1 (1 μg per mouse) daily (•), or 2G1 antibody (10 μg per mouse) three times ( ) for 5 days. Wild type mice, not treated, are represented by an ▾. A. Animal weight loss. B. Animal stool score C. Colon length. D. Resolution index.
# Colitis was induced in 8-10 weeks-old-C57BI/6 male mice by adding 2% (wt/vol) of DSS to the sterile drinking ad libitum water for 6 days. Treatments were injected intra-peritoneally: Isotype control hIgG1 (10 μg per mouse), RvE1 (1 μg per mouse) daily, or 2G1 antibody (10 μg per mouse) three times for 5 days. Colitis follow-up consisting of body weight and stool score (0: normal stool; 4: blood in stool) parameters were performed daily. When mice were euthanized, colon length representing the pathology severity was measured. Resolution index was determined in the different conditions as described in Bannenberg et al., 2005.
molecule,measurement,setting,value
B1,CCL17 secretion by M2 type macrophages,[1],able to induce
same,IL10 secretion by M2 type macrophages,[1],able to induce
same,secretion of the IL12p40 cytokine by M1 type macrophages,[1],able to decrease the secretion
same,effect on chemerin-dependent activation of the beta-arrestin,CMKLR1 receptor,did not significantly modify chemerin-dependent activation of the beta-arrestin
same,survival rate,Hepa 1.6 cells,15%
same,overall state of the animals,"[2]; 10 μg per mouse i.p. three times, vs control antibody or RvE1",better overall state
same,weight loss,"[2]; FIG. 2A, 10 μg per mouse i.p.",lost significantly less weight
same,score stool,"[2]; FIG. 2B, 10 μg per mouse i.p.",significantly better
